The record followed here is the nanobody polyreactivity screen of Harvey et al. (2022).

A short description of the data set: yeast display, Sf9 membrane polyspecificity reagent, FACS + sequencing; frameworks hold sequencing errors. The procedure, abridged: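 Galactose-induced (36–48 hours) yeast carrying a synthetic nanobody display library were exposed to 10% biotinylated, detergent-solubilized Sf9 membrane reagent at 4 °C for 1 hour. FACS followed streptavidin microbead enrichment, using low and high (top ~1%) gates for expression (anti-HA) and reagent binding (streptavidin). Colony PCR, MiSeq 2 × 250 sequencing and CDR-length filtering followed. Labels for polyreactivity reflect the gate of origin.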
Turning to “QVQLVESGGGLVQAGGSLRLSCAASGRILGRNAMGWYRQAPGKERELVATITSRGGSTYYADSVKGRFTISRDNAKNTVYLQMNSLKPEDTAVYYCAAPRYYYYSYDYWGQGTQVTVSS”, the “polyreactivity (PSR sort gate)” value was “high polyreactivity”.

On to “QVQLVESGGGLVQAGGSLRLSCAASGRILGRYAMGWYRQAPGKERELVAAITARTGSTYYADSVKGRFTISRDNAKNTVYLQMNSLKPEDTAVYYCAAERGWWRNDFDYWGQGTQVTVSS”, for which the “polyreactivity (PSR sort gate)” value was “high polyreactivity”.

For the sequence “QVQLVESGGGLVQAGGSLRLSCAASGRILGTNAKGWYRQAPGKERELVAAISRGGSTYYADSVKGRFTISRDNANNTVYLQMNSLKPEDTAVFYCAVTVLSKRRYYYWGQGTQVTVSS”, the “polyreactivity (PSR sort gate)” value is given as “high polyreactivity”.

As to “QVQLVESGGGLVQAGGSLRLSCAASGRILGYYAMGWYRQAPGKERELVAAISSGDSTNYADSVKGRFTISRDNAKNTVYLQMNSLKPEDTAVYYCAAKGWIWNPYNYWGQGTQVTVSS”, the “polyreactivity (PSR sort gate)” value is recorded as “low polyreactivity”.

Consider “QVQLVESGGGLVQAGGSLRLSCAASGRILHGYAMGWYRQAPGKERELVAAITSSGGRTYYADSVKGRFPISRDNAKNTVYLQMISLKPEDTAVYYCAADRPAYRTGDSKYDYWGQGTQVTVSS”, for which the “polyreactivity (PSR sort gate)” value is listed as “low polyreactivity”.

Turning to “QVQLVESGGGLVQAGGSLRLSCAASGRILHGYAMGWYRQAPGKERELVAAITSSGGRTYYADSVKGRFTISRDNAKNPVYLQMNSLKPEDTAVYYCAADRPAYRTGESKYDYWGQGTQVTVSS”, the “polyreactivity (PSR sort gate)” value is “low polyreactivity”.

In the case of “QVQLVESGGGLVQAGGSLRLSCAASGRILIGNALGWYRQAPGKERELVAAISKRGGSTYYADSVKGRFTMSRDNAKNTDYLHMNSLKPEDTAVYYCNIESLYREFDYWGQGTLVTVSS”, the “polyreactivity (PSR sort gate)” value is reported as “low polyreactivity”.

In the case of “QVQLVESGGGLVQAGGSLRLSCAASGRILNINAMGWYRQAPGKERELVAAITWRGGRTFYADSVKGRFTISRDNAKNTVYLQMNSLKPEDTAVYYCAKGYRGYSYGYWGQGTQVTVSS”, the “polyreactivity (PSR sort gate)” value is reported as “high polyreactivity”.

On to “QVQLVESGGGLVQAGGSLRLSCAASGRILNINAMGWYRQAPGQERELVAAITWRGGRTFYADSVKGRFTISRDNAKNTVYLQMNSLKPEDTAVYYCAASSNTWYPTGYYWGQGTQVTVSS”, for which the “polyreactivity (PSR sort gate)” value was “high polyreactivity”.

As for “QVQLVESGGGLVQAGGSLRLSCAASGRILPGYALGWYRQAPGKERELVAAIRGNGDSTYYADSVKGRFTISRDNAKNTVYLQMNSLKPEDTAVYYCAARRVSTIPRDSYRGRKYGYWGQGTQVTVSS”, the “polyreactivity (PSR sort gate)” value was “low polyreactivity”.

In the case of “QVQLVESGGGLVQAGGSLRLSCAASGRILPSNAMGWYRQAPGKEREFVAGISGSGGSTYYADSVKGRFTISRDNAKNTVYLQMNSLKPEDTAVYYCAAGRAYDGTKHDYWGQGTQVTVSS”, the “polyreactivity (PSR sort gate)” value is on record as “high polyreactivity”.

For the sequence “QVQLVESGGGLVQAGGSLRLSCAASGRILPWYAMGWYRQAPGKERELVARIRSTDSTNYADSVKGRFTISRDNAKNTVYLQMNSLKPEDTAVYYCAKVQWGFPYAWLGSDYWGQGTQVTVSS”, the “polyreactivity (PSR sort gate)” value is listed as “low polyreactivity”.

In the case of “QVQLVESGGGLVQAGGSLRLSCAASGRILPYNVMGWYRQAPGKEREFVAAITGSGGDTYYADSVKGRFTISRDNAKNTVYLQMNSLKPEDTAVYYCAAAPYIGGSFGQTPGSGYWGQGTQVTVSS”, the “polyreactivity (PSR sort gate)” value is “low polyreactivity”.

Take “QVQLVESGGGLVQAGGSLRLSCAASGRILPYNVMGWYRQATGKEREFVAAITGSGGDTYYADSVKGRFTISRDNAKNTVYLQMHILKPVDTAVYYCAAAPYIGGSFGQTPGSGYWGQGTQVTVSS”: the “polyreactivity (PSR sort gate)” value was “low polyreactivity”.

Turning to “QVQLVESGGGLVQAGGSLRLSCAASGRILQYNDMGWYRPAPGKERELVAAIDWSGGITYYADSVKGRFTISRDNAKNTVYLQMNSLKPEDTAVYYCNADFEYSYLYRMEYWGQGTQVTVSS”, the “polyreactivity (PSR sort gate)” value was “low polyreactivity”.

“QVQLVESGGGLVQAGGSLRLSCAASGRILRFYAMGWYRQAPGKERELVATISRSGGSTYYADSVKGRFTISRDNAKNTVYLQMNSLKPEDTAVYYSNAKFKGVSYKMDYWGQGTQVTVSS”: the “polyreactivity (PSR sort gate)” value is “high polyreactivity”.

Regarding “QVQLVESGGGLVQAGGSLRLSCAASGRILRSNAMGWYRQAPGKERELVAAITSSGGSTRYADSVKGRFTISRDNAKNTVYLQMNSLKPEDTAVYYCAARYRQGFQAGHGYWGQGTQVTVSS”, the “polyreactivity (PSR sort gate)” value was “high polyreactivity”.

Regarding “QVQLVESGGGLVQAGGSLRLSCAASGRILRYNAMGWYRQAPGKERELVAAITRTGGITRYADSVKGRFTISRDNAKNTVSLQMNSLNPQDTAVYYCNTYPRYGYVLSWPQGYDYWGQGTQVTVSS”, the “polyreactivity (PSR sort gate)” value is on record as “low polyreactivity”.

For “QVQLVESGGGLVQAGGSLRLSCAASGRILRYNAMGWYRQAPGKERELVASISGNGGSTYYADSVKGRFTISRDNAKNTVYVQMNSLKPEDTAVYYCNKYYYSSRGQKEYDYWGQGTQVTVSS”, the “polyreactivity (PSR sort gate)” value is recorded as “low polyreactivity”.

Take “QVQLVESGGGLVQAGGSLRLSCAASGRILRYYAMGWYRQAPGKELELVASISRGGSTYYADSVKGRFTISRDNAKNTVYLQMNSLKPEDTAVYYCATEVRRSTREFGYWGQGTQVTVSS”: the “polyreactivity (PSR sort gate)” value is given as “high polyreactivity”.

With “QVQLVESGGGLVQAGGSLRLSCAASGRILRYYTMGWYRQAPGKERELVAAITWSGGSTNYADSVKGRFTISRDYAKNTVYLQMNSLKPEDSEVYYCNADRRKYYFTYGSWGQGTQVTVSS”, the “polyreactivity (PSR sort gate)” value is “high polyreactivity”.

As to “QVQLVESGGGLVQAGGSLRLSCAASGRILSANAMGWYRQAPGTERELVAAITYSGDNTYYADSVKGRFTISRDNAKNTVYLQMNSLKPEDTAVYYCAREFQVDGGEEDYWGQGSQVTVSS”, the “polyreactivity (PSR sort gate)” value is reported as “low polyreactivity”.

With “QVQLVESGGGLVQAGGSLRLSCAASGRILSLYAMGWNRQAPGKERELVASINWSDGSTYYADSVKGRFTISRDNAKNTVYLQMNSLKPEDTAVYYCTVDVRSYVAGYDYWGQGTQVTVSS”, the “polyreactivity (PSR sort gate)” value is “low polyreactivity”.

Turning to “QVQLVESGGGLVQAGGSLRLSCAASGRILSTYAMGWYRQAPGKERELVAVISWTGGRTYYADSVKGRFTISRYNAKNTVYLQMNSLKPEDTAVYYCNARPYYGGTRGRQYEYGYWGQGSQVTVSS”, the “polyreactivity (PSR sort gate)” value is listed as “high polyreactivity”.

For the sequence “QVQLVESGGGLVQAGGSLRLSCAASGRILSYYAMGWYRQAPGKERELVARITGRGGSTYYADSVKGRFTISRDNAKNTVYLQMNSLKPEDTAVYYCAAVPWVVYSGYDYWGQGTQVTVSS”, the “polyreactivity (PSR sort gate)” value is on record as “low polyreactivity”.

As for “QVQLVESGGGLVQAGGSLRLSCAASGRILTSNAMGWYRQAPGKERELVAAISWSGGSTYYADSVKGRFTISRDNAKNTVYLQMNSLKPEDTAVYYCAARSIGRAGGYHYWGQGTQVTVSS”, the “polyreactivity (PSR sort gate)” value is given as “low polyreactivity”.

On to “QVQLVESGGGLVQAGGSLRLSCAASGRILTTNAMGLYRQETGKERELVAAITRSGGRTYYADSVKGRFTISRDNAKNTVYLQMNSLKPEDTAVYYCNAVTTRLALYDYWGQGTQVTVSS”, for which the “polyreactivity (PSR sort gate)” value was “high polyreactivity”.

As to “QVQLVESGGGLVQAGGSLRLSCAASGRILVSYAMGWYRQAPGKERELVAAISRSGGSTYYADSVKGRFTISRDNAKNTVYLQMNSLKPEDTAVYYCNVYRFSRYDYWGQGTQVTVSS”, the “polyreactivity (PSR sort gate)” value is on record as “high polyreactivity”.

With “QVQLVESGGGLVQAGGSLRLSCAASGRILVTYAMGWYRQAPGKERELVAAITRGTNTNYADSVKGRFTISRDNAKNTVYLQMNSLKPEDTAVYYCAARRYRYRYGYGGDYWGQGTQVTVSS”, the “polyreactivity (PSR sort gate)” value is reported as “high polyreactivity”.

For the sequence “QVQLVESGGGLVQAGGSLRLSCAASGRILWGNVMGWYRKAPGKERELVATITHGGSTNYADSVKGRFTISRDNAKNTVYLQMNSLKPEDTAVYYCARATRIQFYRRPYNYWGQGTQVTVSS”, the “polyreactivity (PSR sort gate)” value is reported as “high polyreactivity”.

For “QVQLVESGGGLVQAGGSLRLSCAASGRILYGNAMGWYRKAPGKERELVAAITRRGGSTYYADSVKGRFTISRDNAKNTVYLQMNSLKPEDTAVYYCNKVVGYRDTDFDYWGQGTQVTVSS”, the “polyreactivity (PSR sort gate)” value is recorded as “high polyreactivity”.

Regarding “QVQLVESGGGLVQAGGSLRLSCAASGRILYRYAMGWSRQAAGTEREVVAAISRSGGDTYYADSVKGRFTISRDNAKNTVYLQMNSLKPEDTAVYYCAGYSSWSGGLGGVYYWGQGTQVTVSS”, the “polyreactivity (PSR sort gate)” value is recorded as “low polyreactivity”.

Turning to “QVQLVESGGGLVQAGGSLRLSCAASGRILYVNAMGWYRQAPGKERELVAAISWRGGRTYYADSVKGRFTISRDHAKNTVYLQMNSLKPEDTAVYYCAARARGGYQRDYWGQGTQVTVSS”, the “polyreactivity (PSR sort gate)” value was “high polyreactivity”.

For the sequence “QVQLVESGGGLVQAGGSLRLSCAASGRILYYYAMGWYRQAPGKERELVAAINSSGGSTYYADSVKGRFTISRDNAKNTVYLQMNSLKPEDTAVYYCAAVRSKLYYYWGQGTQVTVSS”, the “polyreactivity (PSR sort gate)” value is given as “high polyreactivity”.

For the sequence “QVQLVESGGGLVQAGGSLRLSCAASGRIPAYAMGWYRQAPWKERELVAAITWSGGSTYYADSVKGRFTISRDNAKNTVYLQMISLKPEDTSVDYCAAKQWGRYGYWGKGTQVTVSS”, the “polyreactivity (PSR sort gate)” value is “high polyreactivity”.

With “QVQLVESGGGLVQAGGSLRLSCAASGRIRYAMGWYRQAPGKERELVAGITWSGGRTYYADSVKGRFTISRDNAKNTVYLQMNSLKPEDTAVYYCAAATPYRYNYWGQGTQVTVSA”, the “polyreactivity (PSR sort gate)” value is on record as “high polyreactivity”.

“QVQLVESGGGLVQAGGSLRLSCAASGRISARYVMGWYRQAPGKERELVAAISWSGDRTYYADSVKGRFTISRDNAKNTVYLQMNSLKPEDTAVYYCANGFYSRLAYGYGYWGQGTQVTVSS”: the “polyreactivity (PSR sort gate)” value was “high polyreactivity”.

For the sequence “QVQLVESGGGLVQAGGSLRLSCAASGRISDDYAMGWYRQAPGKERELVADITSGGNTYYADSVKGRFTISRDNAKNTVYLQMNSLKPEDTAVYYCNAYYVGYIRYWTNKLVDYWGQGTQVTVSS”, the “polyreactivity (PSR sort gate)” value is reported as “high polyreactivity”.

Regarding “QVQLVESGGGLVQAGGSLRLSCAASGRISFNAMGWYRQAPGKERELVAAITSSGGRTYYADSVKGRFTISRDNAKNTVYLQMNSLKPEDTAVYYCATGSPGGSPGWGRTTGRLGYWGQGTQVTVSS”, the “polyreactivity (PSR sort gate)” value is “high polyreactivity”.

“QVQLVESGGGLVQAGGSLRLSCAASGRISFVNAMGWYRQAPGKERELVAAISRGGSTNYADSVKGRFTISRDNAKNTVYLQMNSLKPEDTAVYYCAAQGNNYVRHTYGYWGQGTQVTVSS”: the “polyreactivity (PSR sort gate)” value is “low polyreactivity”.

For the sequence “QVQLVESGGGLVQAGGSLRLSCAASGRISGYKVMGWYRQAPGKERELVAAISGSGGSTYYADSVKGRFTISRDNAKNTVYLQMNSLKPEDTAVYYCAKATAYPYDYWGQGTQVTVSS”, the “polyreactivity (PSR sort gate)” value was “low polyreactivity”.
